In patent publication US20240294670A1 (University of Texas, published 2024) one finds Kd, koff and kon data, which are given here for five molecules.

Some results are limits rather than exact numbers.

In general, Kd refers to a measure of binding affinity in units of concentration. As usually defined, the koff is a measure of how fast the partners let go of each other. One may read the kon as a measure of how fast the partners come together.

The target of test [1] is T1, recombinant human CHI3L1 (human, UniProt P36222 22-383).
T1 construct: His-tagged recombinant protein (Sino Biological 11227-H08H, or in-house HEK293 protein with 6xHIS-tag and avi-tag); also called hCHI3L1; hChi3l1
T1 sequence (P36222 22-383 limits assumed): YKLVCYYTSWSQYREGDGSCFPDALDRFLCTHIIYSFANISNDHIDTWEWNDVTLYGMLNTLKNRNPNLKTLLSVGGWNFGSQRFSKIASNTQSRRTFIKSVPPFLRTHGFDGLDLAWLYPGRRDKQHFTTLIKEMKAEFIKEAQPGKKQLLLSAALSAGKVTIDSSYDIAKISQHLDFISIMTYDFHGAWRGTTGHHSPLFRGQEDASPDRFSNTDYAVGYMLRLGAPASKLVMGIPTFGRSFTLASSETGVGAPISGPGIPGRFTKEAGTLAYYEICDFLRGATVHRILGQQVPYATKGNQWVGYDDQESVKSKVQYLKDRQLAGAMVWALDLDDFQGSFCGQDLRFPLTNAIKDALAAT
Put plainly: Octet BLI. (In general: BLI is a label-free optical method that tracks binding on a fibre tip over time.)

Test [2] addresses T1, recombinant human CHI3L1. The experiment in a line: BLI (Octet), mAb on protein A sensor, CHI3L1 in solution, 1:1 fit. Here is the method:
(§1) FIG. 8. Kinetic binding sensorgrams collected on Octet instrument for determination of kon and koff rates for each CHI3L1 antibody.
(§2) Binding affinity of anti-CHI3L1 monoclonal antibodies determined using Bio-layer interferometry (BLI), a sensor-based Octet instrument. […] Following by kinetics buffer washing to baseline, the loaded biosensors were exposed to a series of recombinant CHI3L1 protein at 0.1-200 nM range and background subtraction was used to correct for any background from sensor drifting. All experiments were performed with shaking at 1,000 rpm. Background wavelength shifts were measured from reference biosensors that were loaded with antibody and followed with buffer without antigen. ForteBio's data analysis software was used to fit the data to a 1:1 binding model to extract an association rate and dissociation rate. The KD was calculated using the ratio of koff/kon and the estimated values of KD for CHI3L1 mAbs in Table C.

Test [3] has as its target T2, recombinant mouse CHI3L1 (mouse, UniProt Q61362 30-389, limits assumed).
T2 construct: His-tagged; also called mCHI3L1; mChi3l1
The description is as above. Here is the method:
as §1, §2

Test [4] concerns the target T2, recombinant mouse CHI3L1. Put plainly: Octet BLI.

T2 sequence (Q61362 30-389 limits assumed): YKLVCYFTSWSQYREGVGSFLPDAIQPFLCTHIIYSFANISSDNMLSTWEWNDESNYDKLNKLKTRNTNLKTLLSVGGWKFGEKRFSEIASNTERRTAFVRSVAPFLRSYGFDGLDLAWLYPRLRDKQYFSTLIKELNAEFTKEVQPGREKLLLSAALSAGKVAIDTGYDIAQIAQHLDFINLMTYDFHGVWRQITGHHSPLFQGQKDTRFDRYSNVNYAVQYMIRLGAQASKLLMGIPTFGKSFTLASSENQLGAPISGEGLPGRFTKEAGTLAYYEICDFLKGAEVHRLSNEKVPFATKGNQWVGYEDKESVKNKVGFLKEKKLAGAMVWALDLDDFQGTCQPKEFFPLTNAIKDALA

B1: humanized C7 antibody C7Hu (antibody, V domains shown)
VH: QVQLVESGGGVVQPGRSLRLSCAASGFTLTTYWVCWVRQAPGKGLEWVACIDAGSITYYTTWARGRFTISRDNSTNTLFLQMNSLRAEDTAVYYCARDAHYTYALVLWGRGTLVTVSS
VL: DIQMTQSPSSVSASVGDRVTIKCQASEDIESYLAWYQQKPGKAPKLLIYDASDLASGVPSRFSGSGSGTDFTLTISSLQPEDAATYYCQGYSYGSSYVGFGGGTKVEIK
notes: Humanized form of C7
Turning to B1, in the test with recombinant human CHI3L1 [1], the Kd worked out at 0.88 nM, the koff is 0.000492 s⁻¹ and the kon was 559000 M⁻¹ s⁻¹.

B2: anti-CHI3L1 monoclonal antibody C56 (antibody, V domains shown)
VH: QEQLVESGGDLVKPGASLTLTCTASGFSFSSSYWICWVRQAPGKGLELIACIYPSSSGSTDYASWAKGRFTISKTSSTTVTLQMTSLTAADTATYFCARDIPYNIHGYTTGFNLWGPGTLVTVSS
VL: ALVMTQTPASVEAAVGGTVTIKCQASQSIGSNLAWYQQKPGQPPKLLIYSASTLASGVSSRFKGSRSGTEFTLTISDLECADAATYYCQFTYYGSSDVDVFGGGTKVVVE
notes: Rabbit mAb from single B cells, expressed as full length IgG in HEK293
Turning to B2, in the test with recombinant human CHI3L1 [2], the Kd was under 0.001 nM, the koff was under 1e-07 s⁻¹ and the kon is 189000 M⁻¹ s⁻¹. Further, in the test with recombinant mouse CHI3L1 [3], the Kd is 7.92 nM, the koff was determined as 0.000592 s⁻¹ and the kon was determined as 74800 M⁻¹ s⁻¹.

B3: anti-CHI3L1 monoclonal antibody C59 (antibody, V domains shown)
VH: QSVEESGGDLVKPGASLTLTCTASGFTISSDYYMCWVRQAPGKGLEWIGCIYIGSGTDTYYASWAKGRFTISKTSSTTVTLQMTSLTAADTATYFCARDKGWSNAWGFYFQLWGPGTLVTVSS
VL: DPVLTQTPASVEVPVGGTVTINCQASQSIGKYLNWYQQKPGQPPKLLIYSSSSLASGVSSRFKGSGFGTQFTLTISGVQCADAATYYCQQGYSYVDLENGFGGGTELEIL
notes: Rabbit mAb from single B cells, expressed as full length IgG in HEK293; also called clone 59; C59mAb
With B3, in the test with recombinant human CHI3L1 [2], the Kd came to 1.42 nM, the koff turned out to be 0.000235 s⁻¹ and the kon turned out to be 166000 M⁻¹ s⁻¹. In the test with recombinant mouse CHI3L1 [3], the Kd amounted to 3.43 nM, the koff was found to be 0.000402 s⁻¹ and the kon turned out to be 117000 M⁻¹ s⁻¹.

B4: humanized C59 antibody C59Hu (antibody, V domains shown)
VH: EVQLVESGGGLVQPGGSLRLSCAASGFTISSDYYMCWVRQAPGKGLEWIGCIYIGSGTDTYYADSVKGRFTISKHNSKNTLYLQMTSLRAEDTAVYYCARDKGWSNAWGFYFQLWGQGTLVTVSS
VL: DIQMTQSPSSLSASVGDRVTITCQASQSIGKYLNWYQQKPGKAPKLLIYSSSSLASGVPSRFSGSGFGTDFTLTISSLQPEDFATYYCQQGYSYVDLENGFGGGTKVEIK
notes: Humanized form of C59
For the molecule B4, in the test with recombinant human CHI3L1 [1], the equilibrium dissociation constant (Kd) was 4.5 nM, the koff was 0.000635 s⁻¹ and the kon was determined as 141000 M⁻¹ s⁻¹. In addition, in the test with recombinant mouse CHI3L1 [4], the Kd came to 4.44 nM, the koff is 0.00095 s⁻¹ and the on-rate constant (kon) was 214000 M⁻¹ s⁻¹.

B5: anti-CHI3L1 monoclonal antibody C53 (antibody, V domains shown)
VH: QEQLVESGGDLVKPGASLTLTCTASGFSFSSSHYMCWVRQAPGKGLEWIACIYLGDDSTYYASWVNGRFSISKTSSTTVTLQMTSLTAADTATYFCARHGYNLAIHNYIIWGPGTLVTVSS
VL: DVVMTQTPSSVEAGVGGTVTIKCQASESSSRHLSWYQQKPGQRPKLLIYWASTLASGVPSRFQGSGSGTEFTLTISDLECADAATYYCQSYYGLSNNGWRYAFGGGTEVVVK
notes: as for B2
Consider B5, for which, in the test with recombinant human CHI3L1 [2], the Kd was under 0.001 nM, the koff is under 1e-07 s⁻¹ and the kon is 137000 M⁻¹ s⁻¹. Moreover, in the test with recombinant mouse CHI3L1 [3], the Kd was 3.54 nM, the off-rate constant (koff) was determined as 0.000273 s⁻¹ and the kon turned out to be 77300 M⁻¹ s⁻¹.
